Values joined by “and” are separate entries in the source; they are usually repeats but may differ in a detail not shown here. Equal values may be shown once.
What was measured:
[1] = target: T1, PapA Gln106AzF, P04127; test: pilus rod formation quantified by Sypro Ruby signal after ultracentrifugation; conditions: chain shown with the change;; parent: est. 100; read off a plot
T1 chain: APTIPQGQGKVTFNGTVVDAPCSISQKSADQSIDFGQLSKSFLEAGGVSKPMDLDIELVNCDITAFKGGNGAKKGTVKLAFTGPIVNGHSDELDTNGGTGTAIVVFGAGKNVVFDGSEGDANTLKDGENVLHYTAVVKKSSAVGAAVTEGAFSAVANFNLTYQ

[2] = target: T2, PapA Val155AzF, P04127; test: as above; conditions: chain shown with the change;; parent: est. 100; read off a plot
T2 chain: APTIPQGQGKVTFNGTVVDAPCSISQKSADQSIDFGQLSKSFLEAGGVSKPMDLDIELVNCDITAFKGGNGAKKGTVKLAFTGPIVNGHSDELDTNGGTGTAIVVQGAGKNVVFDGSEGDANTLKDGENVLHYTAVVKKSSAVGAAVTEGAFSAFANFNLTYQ

[3] = target: T3, PapA Val143AzF, P04127; test: as above; conditions: chain shown with the change;; parent: est. 100; read off a plot
T3 chain: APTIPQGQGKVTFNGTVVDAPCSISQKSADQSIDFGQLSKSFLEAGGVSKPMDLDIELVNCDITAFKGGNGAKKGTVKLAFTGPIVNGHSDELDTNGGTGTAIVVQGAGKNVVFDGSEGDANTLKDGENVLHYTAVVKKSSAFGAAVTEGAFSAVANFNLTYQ

[4] = target: T4, PapA Thr76AzF, P04127; test: as above; conditions: chain shown with the change;; parent: est. 100; read off a plot
T4 chain: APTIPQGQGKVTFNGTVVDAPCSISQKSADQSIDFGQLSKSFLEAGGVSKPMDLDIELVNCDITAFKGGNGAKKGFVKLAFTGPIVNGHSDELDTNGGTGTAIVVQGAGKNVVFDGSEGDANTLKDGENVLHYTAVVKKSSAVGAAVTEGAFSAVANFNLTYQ

[5] = target: the molecule itself; test: in vitro rod formation (pelleting by ultracentrifugation, negative stain EM, Sypro Ruby signal); purified PapD:PapA complexes at 50 μM, 20°C, 72 hr; four rounds of ultracentrifugation at 57,000 x g; 20 mM Tris (pH 7.5), 150 mM NaCl
[6] = target: T5, PapA Lys50AzF, P04127; test: pilus rod formation quantified by Sypro Ruby signal after ultracentrifugation; conditions: chain shown with the change;; parent: est. 100; read off a plot
T5 chain: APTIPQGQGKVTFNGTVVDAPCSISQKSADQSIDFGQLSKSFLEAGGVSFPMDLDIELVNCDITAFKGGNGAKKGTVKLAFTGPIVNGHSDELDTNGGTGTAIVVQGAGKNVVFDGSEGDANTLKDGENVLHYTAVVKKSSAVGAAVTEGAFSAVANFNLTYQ

[7] = target: T6, PapA Lys27AzF, P04127; test: as above; conditions: chain shown with the change;; parent: est. 100; read off a plot
T6 chain: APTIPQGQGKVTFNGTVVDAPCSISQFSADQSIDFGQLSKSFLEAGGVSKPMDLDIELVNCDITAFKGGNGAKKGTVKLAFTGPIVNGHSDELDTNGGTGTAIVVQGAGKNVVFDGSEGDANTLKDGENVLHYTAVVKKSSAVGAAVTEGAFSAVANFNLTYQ

[8] = target: the molecule itself; test: SEC; purified PapDHis:PapA left to polymerize at 20°C for 16 hr at 38 μM; Superdex 200 10/300 increase; donor-strand exchange (DSE) products
[9] = target: T7, PapA Val18AzF, P04127; test: pilus rod formation quantified by Sypro Ruby signal after ultracentrifugation; conditions: chain shown with the change;; parent: est. 100; read off a plot
T7 chain: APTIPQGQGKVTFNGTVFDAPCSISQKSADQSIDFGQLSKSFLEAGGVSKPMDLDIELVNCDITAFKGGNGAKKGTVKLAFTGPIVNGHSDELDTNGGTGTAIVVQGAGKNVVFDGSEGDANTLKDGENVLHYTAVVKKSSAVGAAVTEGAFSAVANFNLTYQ

[10] = target: the molecule itself; test: SEC-MALS; sample of PapD:PapA Val18AzF; Superdex 200 10/300 increase; molecular weight of each peak

B1: PapA wild-type, P04127 Q106AzF (protein)
chain: APTIPQGQGKVTFNGTVVDAPCSISQKSADQSIDFGQLSKSFLEAGGVSKPMDLDIELVNCDITAFKGGNGAKKGTVKLAFTGPIVNGHSDELDTNGGTGTAIVVFGAGKNVVFDGSEGDANTLKDGENVLHYTAVVKKSSAVGAAVTEGAFSAVANFNLTYQ
percent of parent (% of wild-type Sypro Ruby signal) [1]: 93

B2: PapA wild-type, P04127 V155AzF (protein)
chain: APTIPQGQGKVTFNGTVVDAPCSISQKSADQSIDFGQLSKSFLEAGGVSKPMDLDIELVNCDITAFKGGNGAKKGTVKLAFTGPIVNGHSDELDTNGGTGTAIVVQGAGKNVVFDGSEGDANTLKDGENVLHYTAVVKKSSAVGAAVTEGAFSAFANFNLTYQ
percent of parent (% of wild-type Sypro Ruby signal) [2]: 5

B3: PapA wild-type, P04127 V143AzF (protein)
chain: APTIPQGQGKVTFNGTVVDAPCSISQKSADQSIDFGQLSKSFLEAGGVSKPMDLDIELVNCDITAFKGGNGAKKGTVKLAFTGPIVNGHSDELDTNGGTGTAIVVQGAGKNVVFDGSEGDANTLKDGENVLHYTAVVKKSSAFGAAVTEGAFSAVANFNLTYQ
percent of parent (% of wild-type Sypro Ruby signal) [3]: 94

B4: PapA wild-type, P04127 T76AzF (protein)
chain: APTIPQGQGKVTFNGTVVDAPCSISQKSADQSIDFGQLSKSFLEAGGVSKPMDLDIELVNCDITAFKGGNGAKKGFVKLAFTGPIVNGHSDELDTNGGTGTAIVVQGAGKNVVFDGSEGDANTLKDGENVLHYTAVVKKSSAVGAAVTEGAFSAVANFNLTYQ
percent of parent (% of wild-type Sypro Ruby signal) [4]: 96

B5: PapA Thr76AzF (natural protein)
chain: APTIPQGQGKVTFNGTVVDAPCSISQKSADQSIDFGQLSKSFLEAGGVSKPMDLDIELVNCDITAFKGGNGAKKGFVKLAFTGPIVNGHSDELDTNGGTGTAIVVQGAGKNVVFDGSEGDANTLKDGENVLHYTAVVKKSSAVGAAVTEGAFSAVANFNLTYQ
modifications: p-azido-L-phenylalanine (AzF) at 76
notes: PapA of uropathogenic E. coli with AzF at residue 76 by amber suppression; The new residue is the unnatural amino acid p-azido-L-phenylalanine; written as F with the modification
binding result [5]: binds

B6: PapA Lys27AzF (natural protein)
chain: APTIPQGQGKVTFNGTVVDAPCSISQFSADQSIDFGQLSKSFLEAGGVSKPMDLDIELVNCDITAFKGGNGAKKGTVKLAFTGPIVNGHSDELDTNGGTGTAIVVQGAGKNVVFDGSEGDANTLKDGENVLHYTAVVKKSSAVGAAVTEGAFSAVANFNLTYQ
modifications: p-azido-L-phenylalanine (AzF) at 27
notes: PapA of uropathogenic E. coli with AzF at residue 27 by amber suppression; The new residue is the unnatural amino acid p-azido-L-phenylalanine; written as F with the modification
binding result [5]: binds

B7: PapA wild-type, P04127 K50AzF (protein)
chain: APTIPQGQGKVTFNGTVVDAPCSISQKSADQSIDFGQLSKSFLEAGGVSFPMDLDIELVNCDITAFKGGNGAKKGTVKLAFTGPIVNGHSDELDTNGGTGTAIVVQGAGKNVVFDGSEGDANTLKDGENVLHYTAVVKKSSAVGAAVTEGAFSAVANFNLTYQ
percent of parent (% of wild-type Sypro Ruby signal) [6]: 72

B8: PapA wild-type, P04127 K27AzF (protein)
chain: APTIPQGQGKVTFNGTVVDAPCSISQFSADQSIDFGQLSKSFLEAGGVSKPMDLDIELVNCDITAFKGGNGAKKGTVKLAFTGPIVNGHSDELDTNGGTGTAIVVQGAGKNVVFDGSEGDANTLKDGENVLHYTAVVKKSSAVGAAVTEGAFSAVANFNLTYQ
percent of parent (% of wild-type Sypro Ruby signal) [7]: 93

B9: PapA Val143AzF (natural protein)
chain: APTIPQGQGKVTFNGTVVDAPCSISQKSADQSIDFGQLSKSFLEAGGVSKPMDLDIELVNCDITAFKGGNGAKKGTVKLAFTGPIVNGHSDELDTNGGTGTAIVVQGAGKNVVFDGSEGDANTLKDGENVLHYTAVVKKSSAFGAAVTEGAFSAVANFNLTYQ
modifications: p-azido-L-phenylalanine (AzF) at 143
notes: PapA of uropathogenic E. coli with AzF at residue 143 by amber suppression; The new residue is the unnatural amino acid p-azido-L-phenylalanine; written as F with the modification
binding result [5]: binds

B10: PapA wild-type (natural protein)
chain: APTIPQGQGKVTFNGTVVDAPCSISQKSADQSIDFGQLSKSFLEAGGVSKPMDLDIELVNCDITAFKGGNGAKKGTVKLAFTGPIVNGHSDELDTNGGTGTAIVVQGAGKNVVFDGSEGDANTLKDGENVLHYTAVVKKSSAVGAAVTEGAFSAVANFNLTYQ
notes: PapA, major P pilus rod subunit of uropathogenic E. coli; Ala1 is the very N terminus in the model; also called major pilus subunit PapA; P pilus rod subunit
binding result [8]: binds

B11: PapA Gln106AzF (natural protein)
chain: APTIPQGQGKVTFNGTVVDAPCSISQKSADQSIDFGQLSKSFLEAGGVSKPMDLDIELVNCDITAFKGGNGAKKGTVKLAFTGPIVNGHSDELDTNGGTGTAIVVFGAGKNVVFDGSEGDANTLKDGENVLHYTAVVKKSSAVGAAVTEGAFSAVANFNLTYQ
modifications: p-azido-L-phenylalanine (AzF) at 106
notes: PapA of uropathogenic E. coli with AzF at residue 106 by amber suppression; The new residue is the unnatural amino acid p-azido-L-phenylalanine; written as F with the modification
binding result [5]: binds

B12: PapA wild-type, P04127 V18AzF (protein)
chain: APTIPQGQGKVTFNGTVFDAPCSISQKSADQSIDFGQLSKSFLEAGGVSKPMDLDIELVNCDITAFKGGNGAKKGTVKLAFTGPIVNGHSDELDTNGGTGTAIVVQGAGKNVVFDGSEGDANTLKDGENVLHYTAVVKKSSAVGAAVTEGAFSAVANFNLTYQ
percent of parent (% of wild-type Sypro Ruby signal) [9]: 5

B13: PapA Lys50AzF (natural protein)
chain: APTIPQGQGKVTFNGTVVDAPCSISQKSADQSIDFGQLSKSFLEAGGVSFPMDLDIELVNCDITAFKGGNGAKKGTVKLAFTGPIVNGHSDELDTNGGTGTAIVVQGAGKNVVFDGSEGDANTLKDGENVLHYTAVVKKSSAVGAAVTEGAFSAVANFNLTYQ
modifications: p-azido-L-phenylalanine (AzF) at 50
notes: PapA of uropathogenic E. coli with AzF at residue 50 by amber suppression; The new residue is the unnatural amino acid p-azido-L-phenylalanine; written as F with the modification
binding result [5]: binds

B14: PapA Asp126AzF (natural protein)
chain: APTIPQGQGKVTFNGTVVDAPCSISQKSADQSIDFGQLSKSFLEAGGVSKPMDLDIELVNCDITAFKGGNGAKKGTVKLAFTGPIVNGHSDELDTNGGTGTAIVVQGAGKNVVFDGSEGDANTLKFGENVLHYTAVVKKSSAVGAAVTEGAFSAVANFNLTYQ
modifications: p-azido-L-phenylalanine (AzF) at 126
notes: PapA of uropathogenic E. coli with AzF at residue 126 by amber suppression; The new residue is the unnatural amino acid p-azido-L-phenylalanine; written as F with the modification
binding result [8]: binds

B15: PapA Val155AzF (natural protein)
chain: APTIPQGQGKVTFNGTVVDAPCSISQKSADQSIDFGQLSKSFLEAGGVSKPMDLDIELVNCDITAFKGGNGAKKGTVKLAFTGPIVNGHSDELDTNGGTGTAIVVQGAGKNVVFDGSEGDANTLKDGENVLHYTAVVKKSSAVGAAVTEGAFSAFANFNLTYQ
modifications: p-azido-L-phenylalanine (AzF) at 155
notes: PapA of uropathogenic E. coli with AzF at residue 155 by amber suppression; The new residue is the unnatural amino acid p-azido-L-phenylalanine; written as F with the modification
binding result [8]: binds

B16: PapA Asn96AzF (natural protein)
chain: APTIPQGQGKVTFNGTVVDAPCSISQKSADQSIDFGQLSKSFLEAGGVSKPMDLDIELVNCDITAFKGGNGAKKGTVKLAFTGPIVNGHSDELDTFGGTGTAIVVQGAGKNVVFDGSEGDANTLKDGENVLHYTAVVKKSSAVGAAVTEGAFSAVANFNLTYQ
modifications: p-azido-L-phenylalanine (AzF) at 96
notes: PapA of uropathogenic E. coli with AzF at residue 96 by amber suppression; The new residue is the unnatural amino acid p-azido-L-phenylalanine; written as F with the modification
binding result [8]: binds

B17: PapA Val18AzF (natural protein)
chain: APTIPQGQGKVTFNGTVFDAPCSISQKSADQSIDFGQLSKSFLEAGGVSKPMDLDIELVNCDITAFKGGNGAKKGTVKLAFTGPIVNGHSDELDTNGGTGTAIVVQGAGKNVVFDGSEGDANTLKDGENVLHYTAVVKKSSAVGAAVTEGAFSAVANFNLTYQ
modifications: p-azido-L-phenylalanine (AzF) at 18
notes: PapA of uropathogenic E. coli with AzF at residue 18 by amber suppression; The new residue is the unnatural amino acid p-azido-L-phenylalanine; written as F with the modification; also called Val18 mutant
stoichiometry N [10]: 2 and 3

From publication PMC4715182, “Structure of a Chaperone-Usher Pilus Reveals the Molecular Basis of Rod Uncoiling” (Cell, 2016)
